Tested on: MS2 coat protein
Experiment: apparent KD of MS2 coat protein; designed switch direction (-1 OFF switch, 1 ON switch): -1; higher = weaker reporter binding
Procedure, shortened: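 On Illumina chips, designed RNA switches with common flanks were made by stalled E. coli RNA polymerase. Titrations with SNAP-549-labelled MS2 coat protein, doubling from 0.7 or 1.5 nM to 3 µM, were done with no input, with 200 uM small-molecule ligand, or with an oligonucleotide input. Apparent KD is the median per design over clusters, from curve fits of normalised cluster fluorescence.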

[1] = input ligand: microRNA oligo, concentration not stated
[2] = Eterna round: R95, input ligand: microRNA oligo, concentration not stated
[3] = Eterna round: R95, input ligand: FMN 200 uM
[4] = Eterna round: R95, input ligand: none

| Sequence | apparent KD of MS2 coat protein (input ligand: FMN 200 uM) [nM] | apparent KD of MS2 coat protein [1] [nM] | apparent KD of MS2 coat protein (input ligand: none) [nM] | apparent KD of MS2 coat protein [2] [nM] | further results |
| --- | --- | --- | --- | --- | --- |
| UUAAUUACGGUGCUUUAACCUCACAUGAGGAUCACCCAUGUGCAGGAUAUCAGCUCGAUUAGAGCUGAGAAGGGCACUGCACCG [ExNG3/11-A1] (Eterna round: R96, puzzle: Exclusion NG 3) | 15.1 | 9.95 | 12.5 | – | – |
| UUAAUUAGCAGACUAAUACCUCACAUGAGGAUCACCCAUGUGCAGGAUAUCAGCUCGAUUAGAGCUGAGAAGGGCACUGUCUGC [ExNG3/12-A1] (Eterna round: R96, puzzle: Exclusion NG 3) | 14.8 | 8.01 | 11.3 | – | – |
| UUAAUUAGCAGGCAAGAUCAUUACAUGAGGAUCACCCAUGUCGAGGAUAUCAGCUCGUGUAGAGCUGAGAAGGCGACAGCCUGC [ExNG3/13-A3] (Eterna round: R96, puzzle: Exclusion NG 3) | 666 | 207 | 334 | – | – |
| UUAAUUAGCAGGCAAGAUCAUUACAUGAGGAUCACCCAUGUCGAGGAUAUCAGCUCGUUUAGAGCUGAGAAGGCGACAGCCUGC [ExNG3/13-A2] (Eterna round: R96, puzzle: Exclusion NG 3) | 711 | 289 | 417 | – | – |
| UUAAUUCUGAUUCUUGAAAUACAUGAGGAUCACCCAUGUUCACAGGAUAUUGAUUAUGGUAGUAACAAGAAGGGUGUAUCAUUU [JR_ExcNG3_Sub040] (Eterna round: R96, puzzle: Exclusion NG 3) | 192 | 162 | 111 | – | – |
| UUAAUUUAAGGGAUAGAUCAUUACAUGAGGAUCACCCAUGUUGAGGAUAUCAGCUCGUUUAGAGCUGAGAAGGCAACAAUAGGG [ExNG3/14-A2] (Eterna round: R96, puzzle: Exclusion NG 3) | 58.9 | 60 | 163 | – | – |
| UUAGAAAUGUUAGGAUAUUAAUAUUUUUUUAGUAUGAUCUACAUGAGGAUCACCCAUGUUAAAAUUAAGAAGGAACAUUUUAUU [JR_ExcNG2_Sub098] (Eterna round: R96, puzzle: Exclusion NG 2) | – | 59.7 | – | – | – |
| UUAGAAUUGUUAGGAUAUUAAUUAUUGUAUAGUAUGAUCUACAUGAGGAUCACCCAUGUUAAAUAUAAGAAGGAACGUUAGAUU [JR_ExcNG2_Sub094] (Eterna round: R96, puzzle: Exclusion NG 2) | – | 42.3 | – | – | – |
| UUAGAGUAAUAGGAUAUGCUACGUCACGGCUGUGCAGAAGGAUUAACAUGAGGAUCACCCAUGUGGUGAGUCCU [Eternabot (L1) Solution 31] (Eterna round: R97, puzzle: Exclusion 6) | 242 | – | 985 | – | – |
| UUAGCGUAAGUAAGGAUAUGCUGGUCGAAAGAUCAGCAGAAGGUACAUGAGGAUCACCCAUGUGGAUUCGUUAU [Mod of JL 11 - Jieux - Brourd's mod of Exclusion 4] (Eterna round: R97, puzzle: Brourd's mod of Exclusion 4) | 73 | – | 27.5 | – | – |
| UUAGGCUGAAGAUCAAUUAAUUAACAUGAGGAUCACCCAUGUAAGGAUAUCAGCUCGUGUAGAGCUGAGAAGGUACAUGCAGCC [ExNG3/18-A3] (Eterna round: R96, puzzle: Exclusion NG 3) | 436 | 135 | 101 | – | – |
| UUAUAAAGAGUGAGGAUAUGCUGGUCCAUGGAUCAGCAGAAGGCACAUGAGGAUCACCCAUGUAAAAUAAUAUU [Mat - Exclusion 4 - JL Mod - D41] (puzzle: Brourd's mod of Exclusion 4) | – | – | – | 18.7 | – |
| UUAUACGCUGAGGAUAUCAUCACUGAGAGGUGAUGAGAAGGCGGUACAUGAGGAUCACCCAUGUCUAUGGGCAG [Ex-6 Malc#21] (puzzle: Exclusion 6) | – | – | – | 187 | – |
| UUAUACGCUGAGGAUAUCUUCACUGAAAAGUGAAGAGAAGGCGGUACAUGAGGAUCACCCAUGUCUAUGGGCAG [Ex-6 Malc#19] (puzzle: Exclusion 6) | – | – | – | 388 | apparent KD of MS2 coat protein [3]: 381 nM; apparent KD of MS2 coat protein [4]: 478 nM |
| UUAUACGUUGAGGAUAUGCGACUUUUUUUAGUUGUAGAAGGCGAUACAUGAGGAUCACCCAUGUUUAUGGGCAU [LRO-Ex6-11] (puzzle: Exclusion 6) | – | – | – | 137 | – |
| UUAUAUAAUGUGAGGAUAUGCUGGUCCUUAGAUCAGCAGAAGGCACAUGAGGAUCACCCAUGUAGUAAAUUUUA [Mat - Exclusion 4 - JL Mod - D11] (puzzle: Brourd's mod of Exclusion 4) | – | – | – | 15.3 | apparent KD of MS2 coat protein [3]: 25 nM; apparent KD of MS2 coat protein [4]: 16.8 nM |

| Sequence | apparent KD of MS2 coat protein (input ligand: FMN 200 uM) [nM] | apparent KD of MS2 coat protein [1] [nM] | apparent KD of MS2 coat protein (input ligand: none) [nM] | apparent KD of MS2 coat protein [2] [nM] | further results |
| --- | --- | --- | --- | --- | --- |
| UUAUAUAGAGUGAGGAUAUGCUGGUCCUUGGAUCAGCAGAAGGCACAUGAGGAUCACCCAUGUAAUAUAUUAUU [Mat - Exclusion 4 - JL Mod - D37] (puzzle: Brourd's mod of Exclusion 4) | – | – | – | 21.1 | – |
| UUAUGUAAUGUAGGAUAUCGGUCAGUUUCUGAUCGAGAAGGACAUGAGGAUCACCCAUGUAAGGCUACCGGUUUCUGGUGGCCU [JL ENG1 3.51] (Eterna round: R96, puzzle: Exclusion NG 1) | 137 | 20.7 | 28.5 | – | – |
| UUAUUACAAGCAAGAUCUCACAUGAGGAUCACCCAUGUGCUCGUCUUAUAAGGUACUGUGACGAAAGUCACGGUACC [Eli 100 v1] (Eterna round: R97, puzzle: Sensor, turn-off variant 1) | 14.8 | – | 17.3 | – | – |
| UUAUUACGAGGAUAUCGUUUUUAUCACAUGAGGAUCACCCAUGUAAUUUAUGUUUCGUUUCGAGAAGGCGUUUGUU [JR_E5_Sub067] (puzzle: Exclusion 5) | – | – | – | 23.3 | – |
| UUAUUAUAUGAAGGAUAUACUUAACAUGAGGAUCACCCAUGUGGUGUUGUGAGUGAGUGAGUUUAGUAGAAGGUCAAGUAUUUU [JMF's solution 51] (Eterna round: R96, puzzle: Exclusion NG 2) | 417 | 494 | 341 | – | – |
| UUAUUAUAUGUAGGAUAUGCAUAUUAUUAUUAUGCAGAAGGACAUGAGGAUCACCCAUGUAUAUUAUUAUUAUAUAUUAUAUAU [Title] (Eterna round: R96, puzzle: Exclusion NG 1) | – | 23.6 | – | – | – |
| UUAUUAUAUGUAGGAUAUGCAUAUUAUUAUUAUGCAGAAGGACAUGAGGAUCACCCAUGUAUAUUGUUGUUAUGUAUUAUAUAU [Title] (Eterna round: R96, puzzle: Exclusion NG 1) | 40.4 | 24.1 | 31.3 | – | – |
| UUCACAUGGACAUGAGAUCACAUGAGGAUCACCCAUGUGAAUAACAAGCUUUUUGCUCGUCUUAUGUCCAAUAAUAG [Stov1/14-C2] (Eterna round: R97, puzzle: Sensor, turn-off variant 1) | 13.7 | – | 12.6 | – | – |
| UUCAGACAUGAGGAUCACCCAUGUGAGGAUAUGAUGCGAUCGUCGAAAGACGAUAGCAUCAGAAGGCACGUAUG [Fiskers Ex 1 - 16] (puzzle: Exclusion 1) | – | – | – | 97.8 | – |
| UUCAGACAUGAGGAUCACCCAUGUGAGGAUAUGAUGCGAUCGUCGAAAGACGAUAGCAUCAGAAGGUACAAAUG [Fiskers Ex 1 - 19] (puzzle: Exclusion 1) | – | – | – | 61 | – |
| UUCAGUCAUCCUUAUUCUUACAUGAGGAUCACCCAUGUUUGUUUAAUUAAGUUUUGUAAGUUUGUUGUUCGUUUUAU [JR_STOV1_v2_Sub073] (Eterna round: R97, puzzle: Sensor, turn-off variant 1) | 47.9 | – | 50.3 | – | – |
| UUCAUGUGAGGAUAUAGUACUCCUUCUAUUAUUAUUGAGUAUUAGAAGGCACAUGAGGAUCACCCAUGUAGUAC [Ex4 - 3 - 40] (puzzle: Exclusion 4) | – | – | – | 24.3 | – |
| UUCCACGAUGUCAGGAUAUGUAGGGCCGCUGCUAGGCAGAAGGGACAUGAGGAUCACCCAUGUACUGACUACUG [Eternabot (L2) Solution 84] (Eterna round: R97, puzzle: Brourd's mod of Exclusion 4) | 78.2 | – | 69.6 | – | – |
| UUCCGCCUAGGAUAUUGGAUACUCUACAUGAGGAUCACCCAUGUGAGCAUGAAAGAUAUCCAAGAAGGAGGUAGCC [Eternabot (L2) Solution 68] (Eterna round: R97, puzzle: Exclusion 5) | 16.7 | – | 14.6 | – | – |
| UUCCGGCGUGUAGGAUAUGGUUCCGUUUCGGUUCCAGAAGGACAUGAGGAUCACCCAUGUGCCUGUCGUCGGUCGUCACCGGGC [salish99_ExNG1_r04_219] (Eterna round: R96, puzzle: Exclusion NG 1) | 22.3 | 13.3 | 15.3 | – | – |
